Data as given in the DeepSol protein solubility set.

Assay: soluble on expression in E. coli; label from the status in PepcDB or PDB records

| Sequence | soluble on expression in E. coli |
| --- | --- |
| MGHHHHHHSHMEDYSQEDWGNHSQDLHGYPTDQELDEIPVTKRTLKIKQESSEEAQKRDIMQNIVQILESVQLKWELFQSWTDFSRLHLSNKLAIFGIGYNTRWKEDIRYHYAEISSQVPLGKRLREYFNSEKPEGRIIMTRVQKMNWKNVYYKFLEITISEARCLELHMEIDWIPIAHSKPTGGNVVQYLLPGGIPKSPGLYAIGYEECIERPLSPHMEQSSLDPGKEGRVDLETLSAQASLQVEIEPTRIIYCYLGIAEVRTLQQCLFLHFQANTKTFSKDWVGINGFLSQNCIVDPGVSPKSIYIKFVEVERDFLSAGSLVECLEKAIGYPLKFNN | not soluble |
| MAAAPFDPAEVFQVFGMRRVDSASFDEQVVQAPGDDLRCVFLWGQDCYNCGIFKQTALLQRQALLALELSWFEADVYADEALGRRFSLHGVPTFVLYRSGKRLGRVTGWPGLPQFSAAMQRLRDGT | not soluble |
| KVLTIKSCNIHSGIGIRPHAQIELEYQGKIHKEISEGDGGYDAFMNALTKITNRLGISIPKLIDYEVRIPPGGKTDALVETRITWNKSLDLEEDQTFKTMGVHPDQTVAAVHATEKMLNQILQPWQI | soluble |
| MQPTPSEYARTPVRIEMQRSKERNSMVYKEMYNDAQRKYSEALDRISKLTDAYLREKAEVENFIKIKDREVEMSKKNANEKLLKDFLPVLDSIDAAIQAEKDNNLIRIRDQMLGVLSRYGLKPIKAEGSKFDPYLHEVVGVTADGEDGMVKYEVQRGYTLNDGVLRTSKVIVVKR | not soluble |
| MKNFHPTGNCPVRDVISRLGDKWSMLVLITLNANGTMRFSDIHKTIEDISQRMLTVTLRTLESDGLIERKIYAEVPPRVEYYLTDTGGTLIPHIEGLVGWALENMDTILEHRKSN | not soluble |
| MAHHHHHHMHTFYTIRYPPPNSQKGGEDSQPIRVTNKAMESLLFCIVHSIEFQSPLQPSRPQLGSSIGSSGKDSITDDEAYVRPVENSSMLLGNVTYVSRSKHKPSVLASLHTAVEAARAIQIPEKSSQVPFELRVRLLRRHRGWLWHDSRPLVEWVFRMAKTREEFSFSTTHGDASERPRPRTSPRATNAHANVVRATGGGGVHSRSREDGLVCSNDPEQIRQVLQFILKHSYDAIDLNTYADFRSGELIFDVSVQEV | not soluble |
| MAHHHHHHMSYLLHSSSYAAATAAAERDGPARGAGGGPLNVVLSRVRSLLHGEPSRVARATSIIDDGSSGSLKRAERHSGASSASRREVLLPLTHDSARVARVPEVSGFIEHGGGFAIPAAKASPRTAPTPVAPPTTNESPVHRPPSARPVDAARDASLYERAVDYTDLEEILRCPLPPVPGCPTPCAFGRHSAGLSSDGSVTAAATLSPPPAPSSARQPPLVFRCIAADSDTGISVYSTPAEDCPMHLMRAYAVLPCSPGDVLQYMDNDIRPRWDSHLRRSALLRELTPPEQTKAVERQYRLSTSIGTAGAAVSQRSPTSLSAQSQGALRQRASSSPRTTGAIHGGCGSAVVSGPATAAASSPTAFQYLPGQRRVAIHYLETRSPVPFVQDRDFEIVVAEEVRPDDTAYVKAFSTPLGYHMPLGPHQSRYVRAVVVLSGMVARPLDAARVEEVLPPVLLRHHRAAAQHGNIQVAGIATKKPSASATVCGDAAARAACVAAPHRYCVVEYVGLVHPMGLLPAVLVNMIISAQLNAMRKMQAFIMQHPMSTLRPRSATHAATGEATGQPLQELLVSLQSLSPSPRKSSRMGKSQESDAAGRTREVKPEATGASAASVSAPLAASPAPVWWRRQMHRFASNL | not soluble |
| MSEKSIVTKILRYLKTVPGCFCWKEHGGMYGTAGLPDIIACVNGRFIAFEVKTPSGKTTKLQEATIKKILNAGGVAAVVHSVDEVKVILEKHDLLQRTKI | soluble |
| MRKISVFDTTLRDGEQSAGVNLNFEEKMEIAKQLERLGVDIIEAGFPASSQGDFQSVKAIAETVKGSSVTGLARSVQKDIDAAWEALKSAEEPRIHLFIATSPIHMEHKLRMTPEQVIEKAVESVKYAASRFKHVQWSAEDASRSDFPFLAQIIEAVIQAGATVINLPDTVGYTTPQEIKRMFQYMKQNVPSIDKVSLSTHNHDDLGMAVANSLAAIQGGADQVECTINGIGERAGNASLEEIAVALNIRKDHYETETGLILKEIKRTSSLVSKLTGMVVPNNKAVVGANAFAHESGIHQDGVLKNKQTYEIITPEMVGVSSNSMVLGKHSGRHAFKTKVQELGFTGTDEQLNNIFKAFKDLADKKKEITEDDLFALMTEQTVGGETNHYELQTLQVNYGSNLTNTATITMKLPSGEVAEEAATGSGSVEAIYNTLERLLDAPVKLLDYRIQSITGGRDALADVYVQMDYQGVVSSGRGTAHDVLEASAKAYLNAVNRTINRKKYAEVYGSKVEV | soluble |
| MKKILDACCGSRMFWFDKQNDQVLFMDNRKHYEKLESGHIVAVNPNIVADFRKMPFDDNSFYHVVFDPPHLLRAGSNSWLAKKYGKLNEQTWKEDIQKGFSECMRVLKPNGTLVFKWNEDQIKLSEILSIIDYEPLYGNKRAKTHWLVFMKESEENESNGLEHHHHHH | not soluble |
| MSLVDDPLIVVNSEKVDKEYAELLMDKYYSKRTLEINSDNEIVVTENIIYNVPALDEFEINDGKGNLLVEFTKSGETVTYKNFEYEEELESDDEGDEVTFMGKTYKLIEYDEDEKIVLGNKVEDTETTEEFSYDAFTFKIIGMDSTGQILVSVYEGSDRIENVKMYPDDTYFVSGSKISIYYDEYMESGDTPYFFFEIYDSLEIEDGETISGYSNIDTDLDGKRINLEYESPKSLSQNFELLNYKVELTDVSDEDLTVFFTVTQNLNYEFDMDEGTKYFGNNIFAVKIENDEDDDSDDESYLYKNNKKYSEIVDYQGSVQLVDQDELLSASSDLILIGGPVSNKVTESIQNSLSVEVTNDYPGEGKGIIQTITNPNNDESTILVLAGSDRDGTKACVLALNQGLYSGSGNLVVKLTGDDSVSVEGHHHHHH | not soluble |
| MKLTLWTYEGPPHVGAMRVATAMKDLQLVLHGPQGATYADLLFTMIERRNARPPVSFSTFEASHMGTDTAILLKDALAAAHARYKPQAMAVALTCTAELLQDDPNGISRALNLPVPVVPLELPSYSRKENYGADETFRALVRALAVPMERTPEVTCNLLGATALGFRHRDDVAEVTKLLATMGIKVNVCAPLGASPDDLRKLGQAHFNVLMYPETGESAARHLERACKQPFTKIVPIGVGATRDFLAEVSKITGLPVVTDESTLRQPWWSASVDSTYLTGKRVFIFGDGTHVIAAARIAAKEVGFEVVGMGCYNREMARPLRTAAAEYGLEALITDDYLEVEKAIEAAAPELILGTQMERNIAKKLGLPCAVISAPVHVQDFPARYAPQMGFEGANVLFDTWVHPLVMGLEEHLLTMFREDFEFHDAAGASHHGGKAVAREESPVAPADLAPAATSDTPAAPSPVVVTQASGEIRWMPEAERELRKIPFFVRGKAKRNTELYAAHKGVCDITVETLYEAKAHYAR | soluble |
| SMPKDVGILALEVYFPAQYVDQTDLEKYNNVEAGKYTVGLGQTRMGFCSVQEDINSLCLTVVQRLMERIQLPWDSVGRLEVGTETIIDKSKAVKTVLMELFQDSGNTDIEGIDTTNACYGGTASLFNAANWMESSSWDGRYAMVVCGDIAVYPSGNARPTGGAGAVAMLIGPKAPLALERGLRGTHMENVYDFYKPNLASEYPIVDGKLSIQCYLRALDRCYTSYRKKIQNQWKQAGSDRPFTLDDLQYMIFHTPFCKMVQKSLARLMFNDFLSASSDTQTSLYKGLEAFGGLKLEDTYTNKDLDKALLKASQDMFDKKTKASLYLSTHNGNMYTSSLYGCLASLLSHHSAQELAGSRIGAFSYGSGLAASFFSFRVSQDAAPGSPLDKLVSSTSDLPKRLASRKCVSPEEFTEIMNQREQFYHKVNFSPPGDTNSLFPGTWYLERVDEQHRRKYARRPV | soluble |
| MARGREAVTLLLVGWGYAPGMQTLEALDAVRRADVVYVESYTMPGSSWLYKSVVEAAGEARVVEASRRDLEERSREIVSRALDAVVAVVTAGDPMVATTHSSLAAEALEAGVAVRYIPGVSGVQAARGATMLSFYRFGGTVTLPGPWRGVTPISVARRIYLNLCAGLHTTALLDVDERGVQLSPGQGVSLLLEADREYAREAGAPALLARLPSVLVEAGAGGGHRVLYWSSLERLSTADVEGGVYSIVIPARLSGVEEWLLAAASGQRRPLEYDRSVYETVEENCKKGVYMEPV | soluble |
| MGSDKIHHHHHHMNSALYVGKVRHRRFTPVTHRFDYALFMALIDLDEIPALPHAGIALERFAPASFYRGDYLGGGDIKTKAQDRIAELTGERLTGKVLLLCQLRYLGCYFNPVNFYYLYDEHNQLRWLLAEVRNTPWNERHTYAVVPDGSTTVSKAFHVSPFNPMDMVYHWRLTPPVERLRIHIENHRQGREFDATLLLHRQPLTRAALRKQLWSLPLMTIKIACTIYWQALKLWIKRSPVYPHPQSGRKDNP | not soluble |
| SSWWTHVEMGPPDPILGVTEAFKRDTNSKKMNLGVGAYRDDNGKPYVLPSVRKAEAQIAAKNLDKEYLPIGGLAEFCKASAELALGENNEVLKSGRFVTVQTISGTGALRVGASFLQRFFKFSRDVFLPKPSWGNHTPIFRDAGMQLQGYRYYDPKTCGFDFSGALEDISKIPEQSVLLLHACAHNPTGVDPRPEQWKEIASVVKKKNLFAFFDMAYQGFASGDGDKDAWAVRHFIEQGINVCLCQSYAKNMGLYGERVGAFTVVCKDAEEAKRVESQLKILIRPLYSNPPLNGARIAATILTSPDLRKQWLQEVKGMADRIISMRTQLVSNLKKEGSSHNWQHITDQIGMFCFTGLKPEQVERLTKEFSVYMTKDGRISVAGVTSGNVGYLAHAIHQVTK | soluble |
| SLQSNILAFTPPAPSASMNVNRTAVVSVTTKDSRAIQEIASYTKHGELIKLNASPSVTQLFQQVMQQNLISKGFRVGQLNGSNAWVTVDVREFGTQVEQGNLRYKLNTKIQATVYVQGAKGSYNKSFNVTHSQEGVFNAGNDEIHKVLSQTFNDIVNNIYQDQEVAAAINQYSN | soluble |
| MMQPLQLSAGGFAVVLGTNEIASAVAVHLHREGCCVVMSHDPFPPVIRRKMAFHDALYGDEVTVEGVRGERVDHATQIFKALRRSDNVLVSWLALPDLLPIGAVDVLIDARMQKHRVTPDLRGLARISVGLGPGFSTAVNCDVAIETRPGRSGLIVGAGWTDAADGVASPLGGVGAERFEYSQASGRWRTAVEIGSRVFSGFTIGHLGGVPVRAPCDGILRGVVRDGQDVPQGVKLLEVDSRGRHAQWTGIDDRGRGIAKAVLRAVQPQAEIRTSYAAQPIAVFLEHHHHHH | not soluble |
| MSLDLQEKVRVAAEAVKHADAIVMTAGAGMGVDSGLPDFRGDTGFWKAYPPYQKLGITFVGAANPDHFERDPSFGWGFYGHRTNLYRATVPHAGFDILREWVQRYGLDYFVVTSNVDGQFQKAGFADDRILEVHGSIHHLQCTTPCTMAIWENRETIPVDEATMRAGHVPRCIHCGAVARPNILMFGDYGWVSDRSARQQRNFDEFLADTRGGRLVVVEMGAGTAIPTIRYLTEELGSRSEALAVRINPREPQIRAPHLSLPCGAREGVAAINAVLAEESEGHHHHHH | soluble |
| MSLSYLTEEKLTIVGAAGMIGSNMAQTAAMMRLTPNLCLYDPFAVGLEGVAEEIRHCGFEGLNLTFTSDIKEALTDAKYIVSSGGAPRKEGMTREDLLKGNAEIAAQLGKDIKSYCPDCKHVIIIFNPADITGLVTLIYSGLKPSQVTTLAGLDSTRLQSELAKHFGIKQSLVTNTRTYGGHGEQMAVFASTAKVNGTPLTDLIGTDKLTNEQWAELKQRVVKGGANIIKLRGRSSFQSPSYVSIEMIRAAMGGEAFRWPAGCYVNVPGFEHIMMAMETTITKDGVKHSDINQLGNEAERAALKESYSHLAKLRDEVIAMGIIPAIADWKTVNPNEGHHHHHH | soluble |
